Biological target: MuA transposase (residues 77-663) (Bacteriophage Mu) (UniProt P07636)
Details: 91/92 nt products; mismatch at center of 5 bp target; 10 mM MgCl2, 30 C; scale: % of strand transfer products at mismatch

Chain of MuA transposase (residues 77-663) (Bacteriophage Mu) (P07636 77-663): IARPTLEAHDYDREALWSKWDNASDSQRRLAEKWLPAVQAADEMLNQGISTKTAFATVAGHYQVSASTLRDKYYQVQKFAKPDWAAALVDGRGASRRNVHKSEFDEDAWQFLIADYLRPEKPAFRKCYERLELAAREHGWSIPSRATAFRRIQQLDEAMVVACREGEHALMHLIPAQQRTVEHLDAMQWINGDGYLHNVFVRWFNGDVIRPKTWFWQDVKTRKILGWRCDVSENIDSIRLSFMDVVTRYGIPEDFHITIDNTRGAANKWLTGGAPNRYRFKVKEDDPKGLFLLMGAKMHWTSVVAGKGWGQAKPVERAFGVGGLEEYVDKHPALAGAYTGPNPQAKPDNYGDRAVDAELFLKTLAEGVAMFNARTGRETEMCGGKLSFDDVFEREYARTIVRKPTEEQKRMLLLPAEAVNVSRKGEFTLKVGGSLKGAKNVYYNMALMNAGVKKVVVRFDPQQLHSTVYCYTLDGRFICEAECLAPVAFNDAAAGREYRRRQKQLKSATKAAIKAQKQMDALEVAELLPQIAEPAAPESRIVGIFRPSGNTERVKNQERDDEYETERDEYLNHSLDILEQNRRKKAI

“CGTTCATTAGCACAATCACAGAAGACTAGAATACAACCGCACATAAGATCAGAAGTTAACTAGCACTAGTACTTGC (double strand) [single mismatch target 76 bp]” showed an activity of 90.
